{
  "source": "paper PMC9638904",
  "about": "“Structure and mechanism of the type I-G CRISPR effector” (Nucleic Acids Research, 2022)",
  "binders": {"B1": {"name": "Cas7 (type I-G CRISPR effector subunit, Thioalkalivibrio sulfidiphilus HL-EbGr7) (natural protein, UniProt B8GLG3 1-316, looked up)", "chain": "MKLEPLLSDVPRLLMEADLVPVQGTRFQPTGFPDLGAAHYEGPDGRPMLLVESAQSMANRLETVCWDKDADDWVVPLRGLPVVKVLDKAGKPLTNSVLEAHRLNSPYILEGKDKTLFDLLKQELAHMEEGPVDIRKLAETLLKVDANAVLHGVFLAKKELAGGRLRLPRALSAFIEAEDVRVASSGGVKNDHVNPSGDTSRGFGNVPFARDEYVSPRIKAYFNLDLAQIRAFGLGEQVDRLLIALALYKVRRFLVHGLRLRTACDLDCQALRVTRPEGWEVPELSELEAALPGLIEAVAGEGRFAQPAVTIVTYEK", "notes": "synthetic gene, codon-optimised for E. coli; Seven copies stand on the crRNA in the Cascade complex; also called Cas7.1 to Cas7.7 (the seven copies in the complex); source: E. coli C43(DE3), purified (HisTrap, TEV cleavage, gel filtration); not shown: His8, N-terminal, cleaved"}, "B2": {"name": "Tet crRNA with 80 bp target dsDNA (mixed)", "RNA": "AUUGAAGCAAGCUGUCCCUGAUGGUCGUCAUCUACCUGCCUGGAGUCAUCCGCGGCAUUUAGCCGCGGCCUC", "DNA 1": "GCCCGCGTTGCAGGCCATGCTGTCCAGGCAGGTAGATGACGACCATCAGGGACAGCTTCAAGGATCGCTCGCGGCTCTTAC", "DNA 2": "GTAAGAGCCGCGAGCGATCCTTGAAGCTGTCCCTGATGGTCGTCATCTACCTGCCTGGACAGCATGGCCTGCAACGCGGG"}, "B3": {"name": "80 bp target dsDNA (no crRNA) (dsDNA)", "DNA 1": "B2 DNA 1", "DNA 2": "B2 DNA 2"}},
  "key": {"[1]": {"target": "T1, Csb2 N-terminal (Cas5-like) domain (Thioalkalivibrio sulfidiphilus HL-EbGr7, UniProt B8GLG2 1-259)", "T1 sequence": "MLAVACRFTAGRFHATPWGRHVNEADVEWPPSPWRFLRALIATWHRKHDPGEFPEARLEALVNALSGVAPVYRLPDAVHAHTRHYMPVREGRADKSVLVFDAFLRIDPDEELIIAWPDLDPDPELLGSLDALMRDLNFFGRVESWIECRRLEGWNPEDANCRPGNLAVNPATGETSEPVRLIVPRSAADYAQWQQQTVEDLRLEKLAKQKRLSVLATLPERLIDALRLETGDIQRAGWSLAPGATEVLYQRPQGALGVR", "test": "fluorescence anisotropy; Anisotropy: 25 nM RNA, 50 mM NaCl, 1 mM DTT, 5 mM MgCl2, 1 mM EDTA, 0.1 U/ul RNase inhibitor, 37 C; EMSA/plasmid: 20 mM Tris-HCl, 50 mM NaCl, 1 mM DTT, 0.1 mg/ml BSA, 5 mM MgCl2, 1 mM EDTA, 37 C (30 min EMSA, 1 h plasmid)", "details": "protein: recombinant, tags: N-terminal His8-TEV, removed"}, "Csb2 [2]": {"target": "T2, Csb2 (Thioalkalivibrio sulfidiphilus HL-EbGr7, UniProt B8GLG2 1-516)", "T2 sequence": "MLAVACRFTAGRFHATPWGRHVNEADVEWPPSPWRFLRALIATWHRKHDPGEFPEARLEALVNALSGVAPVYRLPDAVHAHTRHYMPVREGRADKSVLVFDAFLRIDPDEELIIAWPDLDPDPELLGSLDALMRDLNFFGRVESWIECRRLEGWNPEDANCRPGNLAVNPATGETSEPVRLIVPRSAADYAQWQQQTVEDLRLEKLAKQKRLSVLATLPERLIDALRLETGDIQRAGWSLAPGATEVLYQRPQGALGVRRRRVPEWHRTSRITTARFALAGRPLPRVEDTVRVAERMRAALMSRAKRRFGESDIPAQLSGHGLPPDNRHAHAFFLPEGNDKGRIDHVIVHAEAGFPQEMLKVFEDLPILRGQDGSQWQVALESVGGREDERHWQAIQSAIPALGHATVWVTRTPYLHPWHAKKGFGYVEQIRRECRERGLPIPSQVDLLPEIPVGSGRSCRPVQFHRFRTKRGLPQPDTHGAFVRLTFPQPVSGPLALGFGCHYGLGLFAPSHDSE", "test": "fluorescence anisotropy; 5 mM MgCl2, 1 mM EDTA; Anisotropy: 25 nM RNA, 50 mM NaCl, 1 mM DTT, 5 mM MgCl2, 1 mM EDTA, 0.1 U/ul RNase inhibitor, 37 C; EMSA/plasmid: 20 mM Tris-HCl, 50 mM NaCl, 1 mM DTT, 0.1 mg/ml BSA, 5 mM MgCl2, 1 mM EDTA, 37 C (30 min EMSA, 1 h plasmid)", "details": "protein: recombinant; tags: cloning described in pET-Duet and pEV5HisTEV; His8-TEV tag removed; label: 5'-6-FAM; hairpin"}, "[3]": {"target": "the molecule itself", "test": "cryo-EM structure; SEC-purified complex of Cas7, Cas8g, Csb2 and 72 nt crRNA, 1 mg/ml; Titan Krios 300 kV; multibody refinement for Cas8g (~8 Å)"}, "Csb2 [4]": {"target": "T2, Csb2", "test": "fluorescence anisotropy; no appreciable binding; Anisotropy: 25 nM RNA, 50 mM NaCl, 1 mM DTT, 5 mM MgCl2, 1 mM EDTA, 0.1 U/ul RNase inhibitor, 37 C; EMSA/plasmid: 20 mM Tris-HCl, 50 mM NaCl, 1 mM DTT, 0.1 mg/ml BSA, 5 mM MgCl2, 1 mM EDTA, 37 C (30 min EMSA, 1 h plasmid)", "details": "protein: recombinant; tags: cloning described in pET-Duet and pEV5HisTEV; His8-TEV tag removed"}, "Csb2;Cas7;Cas8g;Cas3": {"target": "Csb2;Cas7;Cas8g;Cas3 (Thioalkalivibrio sulfidiphilus …, UniProt B8GLG2;B8GLG3;B8GLG4;B8GLG5 1-516;1-316;1-720;1-828, |||)", "test": "EMSA; 0.8 uM effector; near-complete shift; Anisotropy: 25 nM RNA, 50 mM NaCl, 1 mM DTT, 5 mM MgCl2, 1 mM EDTA, 0.1 U/ul RNase inhibitor, 37 C; EMSA/plasmid: 20 mM Tris-HCl, 50 mM NaCl, 1 mM DTT, 0.1 mg/ml BSA, 5 mM MgCl2, 1 mM EDTA, 37 C (30 min EMSA, 1 h plasmid)", "details": "protein: recombinant;recombinant;recombinant;recombinant; tags: cloning described in pET-Duet and pEV5HisTEV; copies: 1;7;1;1; label: 32P 5' end on DNA; crRNA / target strand / non-target strand; target strand as printed has 1 nt 5' overhang"}, "Csb2;Cas7": {"target": "T3, Csb2;Cas7 (Thioalkalivibrio sulfidiphilus …, UniProt B8GLG2;B8GLG3 1-516;1-316, |)", "T3 sequence 1": "T2 sequence", "T3 sequence 2": "B1 chain", "test": "EMSA; 0.8 uM effector; no Cas8g, no Cas3; no apparent shift; Anisotropy: 25 nM RNA, 50 mM NaCl, 1 mM DTT, 5 mM MgCl2, 1 mM EDTA, 0.1 U/ul RNase inhibitor, 37 C; EMSA/plasmid: 20 mM Tris-HCl, 50 mM NaCl, 1 mM DTT, 0.1 mg/ml BSA, 5 mM MgCl2, 1 mM EDTA, 37 C (30 min EMSA, 1 h plasmid)", "details": "protein: recombinant;recombinant, tags: cloning described in pET-Duet and pEV5HisTEV, His8-TEV tag removed;N-terminal His8-TEV, copies: 1;7, label: 32P 5' end on DNA, crRNA / target strand / non-target strand, target strand as printed has 1 nt 5' overhang"}, "Cas3": {"target": "T4, Cas3 (Thioalkalivibrio sulfidiphilus HL-EbGr7, UniProt B8GLG5 1-828)", "T4 sequence": "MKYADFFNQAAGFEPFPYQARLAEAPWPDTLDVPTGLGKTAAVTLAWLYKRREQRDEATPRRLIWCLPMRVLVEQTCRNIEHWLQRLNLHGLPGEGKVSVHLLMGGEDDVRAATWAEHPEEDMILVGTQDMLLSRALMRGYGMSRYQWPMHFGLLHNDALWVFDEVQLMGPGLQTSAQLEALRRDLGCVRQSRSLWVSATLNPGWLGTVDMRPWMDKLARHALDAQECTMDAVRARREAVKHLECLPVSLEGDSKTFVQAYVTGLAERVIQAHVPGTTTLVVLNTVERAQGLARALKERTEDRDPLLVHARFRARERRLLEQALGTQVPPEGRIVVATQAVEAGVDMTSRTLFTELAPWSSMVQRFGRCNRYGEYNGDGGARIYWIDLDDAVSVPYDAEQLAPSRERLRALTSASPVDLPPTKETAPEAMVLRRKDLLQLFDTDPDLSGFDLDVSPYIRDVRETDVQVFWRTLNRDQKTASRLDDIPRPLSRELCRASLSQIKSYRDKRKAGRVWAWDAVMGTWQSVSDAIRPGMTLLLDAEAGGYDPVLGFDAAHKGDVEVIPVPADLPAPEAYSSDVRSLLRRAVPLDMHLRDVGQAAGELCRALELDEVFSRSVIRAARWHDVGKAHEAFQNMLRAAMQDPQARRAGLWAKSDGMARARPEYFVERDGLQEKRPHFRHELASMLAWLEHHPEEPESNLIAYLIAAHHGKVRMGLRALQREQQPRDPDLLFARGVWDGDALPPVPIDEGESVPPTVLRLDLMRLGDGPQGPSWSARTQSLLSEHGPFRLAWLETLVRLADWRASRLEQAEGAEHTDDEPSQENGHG", "test": "EMSA; Cas3 alone; TS- or NTS-labelled; Anisotropy: 25 nM RNA, 50 mM NaCl, 1 mM DTT, 5 mM MgCl2, 1 mM EDTA, 0.1 U/ul RNase inhibitor, 37 C; EMSA/plasmid: 20 mM Tris-HCl, 50 mM NaCl, 1 mM DTT, 0.1 mg/ml BSA, 5 mM MgCl2, 1 mM EDTA, 37 C (30 min EMSA, 1 h plasmid)", "details": "protein: recombinant; tags: N-terminal His8-TEV, removed; label: 32P on TS or NTS (EMSA); 1 nt 5' overhang on strand 1 as printed"}},
  "data": [
    {"binder": "GUCAUCCGCGGCAUUUAGCCGCGGCCUCAUUGAAGC (structured_RNA)", "note": "[CRISPR repeat RNA (36 nt)]", "values": [
      {"measurement": "binding result", "setting": "[1]; label: 5'-6-FAM, hairpin", "value": "no binding"},
      {"measurement": "Kd", "setting": "Csb2 [2]", "value": 55, "unit": "nM"}
    ]},
    {"binder": "B1", "values": [
      {"measurement": "stoichiometry N", "setting": "[3]", "value": 7}
    ]},
    {"binder": "AUUGAAGC (ssRNA)", "note": "[8 nt 5' handle RNA]", "values": [
      {"measurement": "binding result", "setting": "[1]", "value": "no binding"},
      {"measurement": "binding result", "setting": "Csb2 [4]", "value": "no binding"}
    ]},
    {"binder": "GUCAUCCGCGGCAUUUAGCCGCGGCCUC (structured_RNA)", "note": "[3' hairpin RNA (28 nt)]", "values": [
      {"measurement": "binding result", "setting": "[1]; label: 5'-6-FAM, hairpin", "value": "no binding"},
      {"measurement": "Kd", "setting": "Csb2 [2]", "value": 43, "unit": "nM"}
    ]},
    {"binder": "B2", "values": [
      {"measurement": "binding result", "setting": "Csb2;Cas7;Cas8g;Cas3", "value": "binds"},
      {"measurement": "binding result", "setting": "Csb2;Cas7", "value": "no binding"}
    ]},
    {"binder": "B3", "values": [
      {"measurement": "binding result", "setting": "Cas3", "value": "no binding"}
    ]}
  ]
}
